The values that follow come from patent publication US20080113907A1, “Uses Of Galectin-2” (Charite-Universitat-Smedizin Berlin, priority 2004, published 2008).

For one data set, the system named is CD3, CD7, β1 integrin. As to the kind of experiment: Magnetic separation / co-immunoprecipitation of galectin containing complexes. As to conditions: galectin coated beads, immunoblot for CD3, CD7, β1. It is filed as binding, human. The protocol:
For immunoblotting cells were washed in PBS, and lysed in cell lysis buffer (1% Triton-X, 0.5% NP-40, 0.1% SDS, 0.5% sodium deoxycholate, 5 mM EDTA, 50 mM and 50 mM protease- and phosphatase-inhibitor cocktail 2, 1 mM PMSF, 100 μg/ml trypsin-chymotrypsin inhibitor, 100 μg/ml chymostatin in PBS). The concentration of proteins in each lysate was measured using the Bio-Rad protein assay (Bio-Rad Laboratories, Hercules, Calif.). Equivalent amounts of protein (10 μg) were fractionated on a 10-20% Tris-glycine gel and electrotransferred to a nitrocellulose membrane (Novex, San Diego, Calif.). Membranes were blocked with 5% milk in 0.1% Tween 20-PBS (Fisher Scientific, Hanover Park, Ill.), followed by incubation for 60 m in at room temperature with the indicated primary antibody. The membranes were washed six times with 0.1% Tween 20-PBS and then incubated for 1 h with the appropriate horseradish peroxidase-conjugated secondary antibody (Santa Cruz Biotechnology), washed, and incubated with the chemiluminescent substrate (Perkin-Elmer, Carlsbad, Calif.) for 5 minutes. The membranes were then exposed to film (Amersham, Arlington Heights, Ill.). […]
Background: In western blotting, separated proteins are transferred to a membrane and probed.

Data set [1] deals with acute and chronic DSS colitis. As to the kind of experiment: Dose finding studies in acute and chronic DSS colitis. It is filed as in vivo, BALB/c mice. The protocol: Acute and chronic colitis were induced in BALB/c mice by adding 5% DSS to the drinking water for 7 days to induce acute colitis, or for 3 cycles of 7 days DSS following 7 days without DSS to induce chronic colitis, respectively (Siegmund B, Lehr H A, Fantuzzi G. Leptin: a pivotal mediator of intestinal inflammation in mice. Gastroenterology 2002; 122: 2011-2025). Animals with acute or chronic colitis were treated i.p. with either physiological NaCl as control or Gal-2 once daily (od), twice daily (bid) or three time daily (tid) for 10 days. In one experimental protocol Gal-2 and NaCl 0.9% were injected subcutaneously. Gal-2 doses ranging from 0.5-2 mg/kg body weight in individual doses and total daily doses of 3 mg/kg body weight and different dosing regimens were evaluated. Tacrolimus (1 mg/kg bodyweight), Infliximab (10 mg/kg bodyweight), prednisolone (1 mg/kg bodyweight), all well-known modulators of experimental colitis and human inflammatory bowel diseases were used as positive controls.
PBT were isolated, stimulated with CD3 for 3 days and cytokine secretion was determined by cytometric bead array (CBA) analysis as described previously (Sturm A, Rilling K, Baumgart D C, Gargas K, Abou-Ghazale T, Raupach B, Eckert J, Schumann R R, Enders C, Sonnenborn U, Wiedenmann B, Dignass A U. Escherichia coli Nissle 1917 distinctively modulates T-cell cycling and expansion via toll-like receptor 2 signaling. Infect.Immun. 2005; 73: 1452-1465.) Mucosal recruitment of granulocytes was assessed by Myeloperoxidase activity (Rath H C, Herfarth H H, Ikeda J S, Grenther W B, Hamm T E, Jr., Balish E, Taurog J D, Hammer R E, Wilson K H, Sartor R B. Normal Luminal Bacteria, Especially Bacteroides Species, Mediate Chronic Colitis, Gastritis, and Arthritis in HLA-B27/Human beta 2 Microglobulin Transgenic Rats. Journal of Clinical Investigation 1996; 98: 945-953).

The subject of a further data set is T cells. As to the kind of experiment: Binding of biotinylated Gal-2 to T lymphocytes (flow cytometry). More on the design: species or system human. Here is the method:
To measure Gal-2 binding to T lymphocytes, aliquots of cell suspensions were kept as controls or stimulated for 1, 6, 12, 24, 48, and 72 h with anti-CD3 mAb or PMA and PHA and incubated in the presence of 5 μg/ml biotin-labeled Gal-2. Cells were then harvested, washed and stained with anti-CD3-FITC mAb and APC-labeled streptavidin (Biosource) followed by flow cytofluorometric analysis. Cells cultured in the absence of biotin-labeled Gal-2 and stained with FITC-labeled mouse IgG (BD Pharmingen) or APC-labeled streptavidin served as isotype controls. Each analysis was performed on at least 20,000 events.
A general note: A flow cytometer gives signals particle by particle.

Another data set has as its system PBT. Put plainly: Cytokine secretion (cytometric bead array). The format is cell-based, human. Here is the method:
To determine cytokine secretion, PBT were cultured for 48 h with or without anti-CD3 mAb and incubated in the presence or absence of 0, 10, or 50 μg/ml Gal-2. The supernatant was then collected and cytokine secretion determined by a cytometric bead array, performed according to the manufacturer's instruction (BD Pharmingen). Briefly, six bead populations with distinct fluorescence intensities, coated with capture antibodies specific for TNF-α, IFN-γ, IL-10, IL-5, IL-4, and IL-2 proteins, were mixed with PE-conjugated detection anti-bodies and incubated with recombinant standards or test sample to form sandwich complexes. Following acquisition of sample data using flow cytometry, the cytokine concentrations were calculated using the BD CBA analysis software.

B1: galectin-2: β-galactoside binding lectin, non-covalent dimer with subunits of about 14 kDa; recombinant human or rat (SEQ ID NO:1, 2) (protein)
chain: MAGELEVKNMDMKPGSTLKITGSIADGTDGFVINLGQGTDKLNLHFNPRFSESTIVCNSLDGSNWGQEQREDHLCFSPGSEVKFTVTFESDKFKVKLPDGHELTFPNRLGHSHLSYLSVRGGFNMSSFKLKE
As to B1, in the data set with CD3, CD7, β1 integrin, the glycoproteins co-immunoprecipitated entry was “coimmunoprecipitate only with integrin β1”. Moreover, the “effect on disease activity (DAI)” value in data set [1] (acute and chronic DSS colitis, i.p., different dosing intervals and doses) is recorded as “significantly reduced disease activity”. The safety and toxicity result in data set [1] (acute and chronic DSS model) is recorded as “did not reveal any abnormalities”. The “myeloperoxidase, mucosal granulocyte infiltration” value in data set [1] (data not shown) is “significant reduction of mucosal granulocyte infiltration”. The deaths entry in data set [1] (doses 1-3 mg/kg body weight) is given as “no deaths were observed”. Besides, the “human versus rat Gal-2, disease activity” value in data set [1] (equivalent doses and treatment regimens) was “No significant differences were observed”. For the same molecule, the “improvement of disease activity” value in data set [1] (optimal dose 2×1 mg/kg bodyweight) is given as “more than 250%”. For the same molecule, the “total daily dose range with largest benefit on disease activity” value in data set [1] (per day) is reported as 1.5-3 mg/kg bodyweight. Moreover, in data set [1] (subcutaneous (sc) administration), the “effect on disease activity (DAI)” value is “only in minor and not significant improvement of disease activity”. Further, in data set [1] (tacrolimus 1 mg/kg, infliximab 10 mg/kg, prednisolone 1 mg/kg), the “effects compared with positive controls” value is “comparable with the potent immunomodulator tacrolimus and more potent as the effects observed for prednisolone and infliximab”. The “histological analyses of intestinal injury and inflammation” value in data set [1] (versus control animals) is “significant reduction of intestinal injury and inflammation”. In addition, the “time bound to T cells” value in the data set with T cells is reported as “more than 72 hours”. Also, in the data set with T cells (PMA/PHA or anti-CD3 antibody), the “binding to T cells after stimulation” value is “increase in cell staining”. Also, the “binding to T cells” value with T cells (unstimulated T cells) was “bound to unstimulated T cells in a β-galactoside-specific manner”. In addition, in the data set on PBT (anti-CD3 activated T cells), the IFN-γ production result was “downregulated significantly and dose-dependently”; the IL-2 secretion result was “not influenced”; the IL-4 secretion entry is “not altered”; the IL-5 secretion entry is given as “increasing”. For the same molecule, in the data set with PBT (anti-CD3 activated T cells), the IL-10 secretion result is on record as “increasing”; the TNF-α production entry was “downregulated significantly and dose-dependently”. Moreover, in the data set with PBT (resting T cells), the “cytokine production of resting T cells” value is “failed to modulate cytokine production of resting T cells”.
